Source: article PMC4493074

Biological target: CD31 (PECAM-1) (Homo sapiens) (UniProt P16284)
Conditions: 5-(N-naphthylcarboxyamide)-2'-deoxyuridine (NapdU) replaces dT; SOMAmer; Flow cytometry: 1x PBS (pH 7.4), 2% FBS, 5 mM MgCl2, 0.2 mM dextran sulfate, room temperature, 15 min; aptamers heated at 95 C 5 min and cooled; Kd assay …

UniProt P16284, sequence (P16284 28-601): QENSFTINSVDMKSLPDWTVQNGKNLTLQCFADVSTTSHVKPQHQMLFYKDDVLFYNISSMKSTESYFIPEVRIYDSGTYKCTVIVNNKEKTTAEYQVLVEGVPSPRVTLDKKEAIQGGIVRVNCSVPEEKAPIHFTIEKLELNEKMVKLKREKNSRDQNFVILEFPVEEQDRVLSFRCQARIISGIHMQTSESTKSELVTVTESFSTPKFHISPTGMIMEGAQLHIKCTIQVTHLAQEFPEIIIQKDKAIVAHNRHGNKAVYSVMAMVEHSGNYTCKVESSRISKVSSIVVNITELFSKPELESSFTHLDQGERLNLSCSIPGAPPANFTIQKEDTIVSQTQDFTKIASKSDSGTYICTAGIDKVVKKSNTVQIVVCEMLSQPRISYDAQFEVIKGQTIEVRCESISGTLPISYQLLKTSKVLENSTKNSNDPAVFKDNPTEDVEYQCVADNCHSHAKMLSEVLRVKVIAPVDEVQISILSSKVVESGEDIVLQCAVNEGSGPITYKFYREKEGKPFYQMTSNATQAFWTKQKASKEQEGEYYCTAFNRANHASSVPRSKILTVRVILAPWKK

In the case of “TCAGCCGCCAGCCAGTTCGUAGAGGAGGUACGUAAUGUCUGGGUAUACCCCGAUAAUUGACCAGAGCACCACAGAG [AT-1 (CD31 aptamer clone 1)]”, the Kd is reported as 2.28 nM.
